From patent CN113999303A (BEIJING GENESEE BIOLOGICAL TECH CO LTD, dated 2022)

Target: T1, 新型冠状病毒核衣壳蛋白 (SARS-COV-2, UniProt P0DTC9 1-419)
T1 construct: also called SARS-COV-2 nucleocapsid protein; N protein
Test: ELISA screening of mouse hybridomas for antigen-specific antibodies

B1: 新型冠状病毒核衣壳抗体 mAb#9 (antibody, V domains shown)
VH: EVQLVESGGGLVKPGGSLKLSCAASGITFSDYYMYWVRQTPEKRLEWVATISDGGSYTYYPDSVKGRFTISRDNAKNNLYLQMSSLKSEDTAMYYCVRDKSMGFGAWFAYWGQGTLVTVSA
VL: EIVLTQSPTTMAASPGEKITITCSASSSISSNYLHWYQQRPGFSPKLLIYRTSNLASGVPARFSGSGSGTSYSLTIGTMEAEDVATYYCQQGHSIPYTFGGGTKLEIK
notes: also called 第二新型冠状病毒核衣壳蛋白抗体
binding result: binds
